Test results from PMC6355029, “Structure of the DP1–DP2 PolD complex bound with DNA and its implications for the evolutionary history of DNA and RNA polymerases”.
One block for each molecule: values may come before it.

Columns and labels:
[1] = target: Pyrococcus abyssi PolD DP1 subunit, exonuclease-deficient variant H451A, full length (Pyrococcus abyssi) (UniProt Q9V2F3); assay: AUC; sedimentation velocity of the copurified PolD complex at 0.2, 0.5 and 1 mg/ml, 42,000 rpm, 20°C; continuous c(s) distribution (Sedfit); sediments at 8 S, frictional ratio 1.4
[2] = target: T1, PolD DP1 H451A (exonuclease-deficient small subunit);PolD DP2 (large catalytic subunit) (Pyrococcus abyssi;Pyrococcus abyssi, UniProt Q9V2F3;Q9V2F4;Q9V2F4 1-619;1-954;1140-1455, H451A|); assay: cryo-EM structure; Zn2+ and Fe3+ in protein; no nucleotide; Fluorescence anisotropy: 20 mM sodium succinate pH 6, 100 mM NaCl, 25 C, 5 nM HEX-DNA, PolD up to 600 nM, DP2(1-1061) up to 6 uM; details: protein: recombinant;recombinant; tags: N-terminal 14xHis, TEV-cleaved;; copies: 1;1;1; 15 bp duplex, 5' overhang 5 nt on template
[3] = target: T1, PolD DP1 H451A (exonuclease-deficient …); assay: fluorescence anisotropy; Fluorescence anisotropy: 20 mM sodium succinate pH 6, 100 mM NaCl, 25 C, 5 nM HEX-DNA, PolD up to 600 nM, DP2(1-1061) up to 6 uM; details: protein: recombinant;recombinant; tags: N-terminal 14xHis, TEV-cleaved;; copies: 1;1;1; 3'-HEX in assay text; blunt, 25 bp
[4] = target: T1, PolD DP1 H451A (exonuclease-deficient …); assay: as above; details: protein: recombinant;recombinant; tags: N-terminal 14xHis, TEV-cleaved;; copies: 1;1;1; 3'-HEX in assay text; 18 bp duplex, 5' overhang 7 nt on template

T1 sequence (Q9V2F3 whole entry H451A, chain 1 of 3): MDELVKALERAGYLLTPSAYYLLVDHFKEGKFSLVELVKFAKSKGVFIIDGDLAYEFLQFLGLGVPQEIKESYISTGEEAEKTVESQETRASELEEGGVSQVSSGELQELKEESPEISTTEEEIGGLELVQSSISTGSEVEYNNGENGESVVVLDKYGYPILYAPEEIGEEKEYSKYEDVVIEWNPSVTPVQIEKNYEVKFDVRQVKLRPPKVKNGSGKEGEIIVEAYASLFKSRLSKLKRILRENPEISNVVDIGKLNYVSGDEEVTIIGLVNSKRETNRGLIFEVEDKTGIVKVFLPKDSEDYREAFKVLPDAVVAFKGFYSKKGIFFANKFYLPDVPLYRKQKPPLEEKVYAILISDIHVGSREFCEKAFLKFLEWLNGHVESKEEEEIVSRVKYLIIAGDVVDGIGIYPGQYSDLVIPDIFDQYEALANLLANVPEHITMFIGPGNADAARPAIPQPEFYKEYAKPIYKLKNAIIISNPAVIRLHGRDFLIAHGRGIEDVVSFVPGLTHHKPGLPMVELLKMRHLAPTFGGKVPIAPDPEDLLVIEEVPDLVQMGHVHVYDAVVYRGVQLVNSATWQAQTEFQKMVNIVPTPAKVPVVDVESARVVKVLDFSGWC
T1 sequence (Q9V2F4 1-954, chain 2 of 3): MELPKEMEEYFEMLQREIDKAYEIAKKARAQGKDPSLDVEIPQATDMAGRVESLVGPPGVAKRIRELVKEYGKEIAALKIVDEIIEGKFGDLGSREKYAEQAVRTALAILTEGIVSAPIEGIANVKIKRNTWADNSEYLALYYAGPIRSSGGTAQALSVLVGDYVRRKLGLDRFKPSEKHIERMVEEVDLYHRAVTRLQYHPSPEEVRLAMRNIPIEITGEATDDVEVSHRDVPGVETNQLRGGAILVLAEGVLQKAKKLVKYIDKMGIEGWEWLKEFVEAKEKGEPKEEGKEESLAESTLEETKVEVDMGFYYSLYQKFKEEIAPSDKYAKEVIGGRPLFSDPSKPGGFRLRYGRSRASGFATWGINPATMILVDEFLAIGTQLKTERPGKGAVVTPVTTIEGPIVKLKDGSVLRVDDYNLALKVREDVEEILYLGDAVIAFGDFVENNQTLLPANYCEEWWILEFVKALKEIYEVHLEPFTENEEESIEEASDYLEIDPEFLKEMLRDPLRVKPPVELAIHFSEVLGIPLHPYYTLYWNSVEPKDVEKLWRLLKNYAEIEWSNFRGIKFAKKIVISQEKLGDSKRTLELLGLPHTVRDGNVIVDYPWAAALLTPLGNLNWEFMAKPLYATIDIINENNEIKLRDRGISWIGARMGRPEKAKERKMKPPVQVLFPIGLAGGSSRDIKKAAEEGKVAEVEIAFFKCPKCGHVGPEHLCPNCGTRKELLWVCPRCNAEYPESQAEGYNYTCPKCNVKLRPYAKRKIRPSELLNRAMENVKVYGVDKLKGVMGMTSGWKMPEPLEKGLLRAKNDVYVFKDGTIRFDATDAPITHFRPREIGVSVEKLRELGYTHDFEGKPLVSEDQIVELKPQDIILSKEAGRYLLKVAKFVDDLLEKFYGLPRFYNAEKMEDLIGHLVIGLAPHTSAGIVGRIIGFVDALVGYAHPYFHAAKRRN
T1 sequence (Q9V2F4 1140-1455, chain 3 of 3): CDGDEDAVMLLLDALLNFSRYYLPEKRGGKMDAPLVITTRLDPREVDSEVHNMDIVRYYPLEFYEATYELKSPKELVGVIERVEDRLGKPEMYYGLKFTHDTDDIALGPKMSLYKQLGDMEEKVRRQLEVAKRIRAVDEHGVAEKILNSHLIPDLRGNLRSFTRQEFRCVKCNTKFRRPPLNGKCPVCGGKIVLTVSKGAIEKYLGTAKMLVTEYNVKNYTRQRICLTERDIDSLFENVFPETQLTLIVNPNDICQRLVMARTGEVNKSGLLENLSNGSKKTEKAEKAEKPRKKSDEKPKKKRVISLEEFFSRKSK
Pyrococcus abyssi PolD DP1 subunit, exonuclease-deficient variant H451A, full length (Pyrococcus abyssi), sequence (Q9V2F3 whole entry H451A): as the sequence (Q9V2F3 whole entry H451A, chain 1 of 3) above

stoichiometry N [1]: 1
Molecule: Pyrococcus abyssi PolD DP2 subunit, full length (from UniProt Q9V2F4 1-1455) (enzyme)

B1: cryo-EM primer/template (dsDNA)
DNA 1: GAGACGGGCCGCGTC
DNA 2: ACTTTGACGCGGCCCGTCTC
binding result [2]: binds

B2: HEX dsDNA (dsDNA)
DNA 1: CGCCGGGCCGAGCCGTGCACGACCT
DNA 2: AGGTCGTGCACGGCTCGGCCCGGCG
binding signal [3]: 6.5 fold weaker Kd than primer-template

B3: HEX primer/template (dsDNA)
DNA 1: CGCCGGGCCGAGCCGTGC
DNA 2: AGGTCGTGCACGGCTCGGCCCGGCG
Kd [4]: 15 nM
